Measurements taken from PMC7240154.

Legend:
Experiment in all cases: ITC; Vps4 MIT domain (3 uM in PBS) in the cell, titrated with 19 injections of 10 ul of Vps2/24/46 or Vps20/32/60 (33 uM in PBS) at 2-min intervals; 25°C; ITC200; fits: One Set of Sites or Sequential Binding Sites
[1] = biological target: Lokiarchaeum_GC14_75 Vps4 MIT domain (Lokiarchaeum_GC14_75)
[2] = biological target: Odinarchaeota_LCB_4 Vps4 MIT domain (Odinarchaeota_LCB_4)
[3] = biological target: Heimdallarchaeota_LC_3 Vps4 MIT domain (Heimdallarchaeota_LC_3)

dH [2] [kcal/mol]	dH1 (Sequential Binding Sites, site 1) [3] [kcal/mol]	dH2 (Sequential Binding Sites, site 2) [3] [kcal/mol]	Substance	also measured
–	–	–	Lokiarchaeum_GC14_75 Vps20/32/60 (natural protein)	dH [1]: 1420 kcal/mol
331	–	–	Odinarchaeota_LCB_4 Vps20/32/60 (natural protein)	–
–	2780	-2310	Heimdallarchaeota_LC_3 Vps20/32/60 (natural protein)	–
392	–	–	Odinarchaeota_LCB_4 Vps2/24/46 (natural protein)	–
–	-473	931	Heimdallarchaeota_LC_3 Vps2/24/46 (natural protein)	–
–	–	–	Lokiarchaeum_GC14_75 Vps2/24/46 (natural protein)	dH1 (Sequential Binding Sites, site 1) [1]: -121 kcal/mol; dH2 (Sequential Binding Sites, site 2) [1]: 422 kcal/mol
